The labels stand for the following.
T1: Cynomolgus CD3εδ Fc heterodimer (Cy CD3ε Fc / CD3δ Fc-HIS) (cynomolgus, UniProt Q95LI8 22-100)
T1 chain 1: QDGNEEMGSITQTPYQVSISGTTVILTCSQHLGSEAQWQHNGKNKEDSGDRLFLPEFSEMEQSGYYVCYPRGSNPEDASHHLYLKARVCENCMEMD
T1 chain 2: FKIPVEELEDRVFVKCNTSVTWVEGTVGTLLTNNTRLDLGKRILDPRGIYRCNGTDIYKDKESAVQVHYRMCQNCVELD

B1: SAD10320_P01_G03 (ADI-57358) (antibody, V domains shown)
VH: QVQLVQSGAEVKKPGASVKVSCKASGFNIKDYYMHWVRQAPGQRPEWMGWIDLENANTIYDAKFQGRVTITRDTSASTAYMELSSLRSEDTAVYYCARDAYGHSFYDVWGQGTLVTVSS
VL: DIVMTQSPDSLAVSLGERATINCKSSQSLLNARTGKNYLAWYQQKPGQPPKLLIYWASTRESGVPDRFSGSGSGTDFTLTISSLQAEDVAVYYCKQSYHWRTFGGGTKVEIK
notes: IgG; also called Ab66
B2: SAD10320_P03_F09 (ADI-48656) (antibody, V domains shown)
VH: B1 VH with P45L, S104D
VL: B1 VL with W100R
notes: IgG; also called Ab101
B3: SAD10320_P03_D08 (ADI-57377) (antibody, V domains shown)
VH: B1 VH with P45L, S104Q
VL: B1 VL with W100T
notes: IgG; also called Ab95
B4: SAD10320_P04_E11 (ADI-57388) (antibody, V domains shown)
VH: B1 VH with P45L, S104D
VL: B1 VL with H99G, W100H
notes: IgG; also called Ab111
B5: SAD10320_P02_A04 (ADI-57360) (antibody, V domains shown)
VH: B1 VH with P45L, S104A
VL: B1 VL with Y98L, W100R
notes: IgG; also called Ab68
B6: SAD10320_P02_C05 (ADI-57365) (antibody, V domains shown)
VH: B1 VH with F27S, P45L
VL: B1 VL with W100G
notes: IgG; also called Ab76
B7: SAD10320_P04_E10 (ADI-48657) (antibody, V domains shown)
VH: B1 VH with S104D
VL: B1 VL with H99S, W100R
notes: IgG; also called Ab106
B8: SAD10320_P04_C10 (ADI-57383) (antibody, V domains shown)
VH: B1 VH with P45L, S104A
VL: B1 VL with W100Q
notes: IgG; also called Ab104
B9: SAD10320_P03_H08 (ADI-57379) (antibody, V domains shown)
VH: B1 VH with P45L, S104V
VL: B1 VL with R33S, G35A, H99R, W100H
notes: IgG; also called Ab97
B10: SAD10320_P04_F10 (ADI-57385) (antibody, V domains shown)
VH: B1 VH with R44T, P45L, E46D, H103R, S104N, F105H
VL: B1 VL with T34P, H99L, W100H
notes: IgG; also called Ab107
B11: SAD10320_P04_A10 (ADI-57382) (antibody, V domains shown)
VH: B1 VH with P45L, E46D, S104D
VL: B1 VL with H99S, W100R
notes: IgG; also called Ab103
B12: SAD10320_P01_H03 (ADI-57359) (antibody, V domains shown)
VH: B1 VH with Y101A, G102H, H103R, S104Y
VL: B1 VL with T34P, G35R, Y98H, H99D, W100R
notes: IgG; also called Ab67
B13: SAD10320_P04_A11 (ADI-57386) (antibody, V domains shown)
VH: B1 VH with P45L, E46Q, Y101R, G102H, H103R, S104Y
VL: B1 VL with H99S, W100H, R101G
notes: IgG; also called Ab109
B14: SAD10320_P03_C08 (ADI-57376) (antibody, V domains shown)
VH: B1 VH with K23E, R44T, P45L, E46A, S104V
VL: B1 VL with H99L, W100H
notes: IgG; also called Ab94
B15: SAD10320_P02_E06 (ADI-57369) (antibody, V domains shown)
VH: B1 VH with G8E, P45L, E46Q, S104G
VL: B1 VL with T34P, H99S, W100R
notes: IgG; also called Ab86
B16: SAD10320_P02_A06 (ADI-57367) (antibody, V domains shown)
VH: B1 VH with P45L, E46P, Y101H, G102E, H103R, S104Y
VL: B1 VL with Y98H, H99L, W100R
notes: IgG; also called Ab82
B17: SAD10320_P03_C09 (ADI-57381) (antibody, V domains shown)
VH: B1 VH with K23E, P45L, S104V
VL: B1 VL with H99L, W100H
notes: IgG; also called Ab99
B18: SAD10320_P04_D10 (ADI-57384) (antibody, V domains shown)
VH: B1 VH with K23E, S104V
VL: B1 VL with H99L, W100H
notes: IgG; also called Ab105
B19: SAD10320_P02_B04 (ADI-57273) (antibody, V domains shown)
VH: B1 VH with P45L, W47R, S104G
VL: B1 VL with H99G, W100H
notes: IgG; ADI-57273 is also printed for Ab114; also called Ab70
B20: SAD10320_P04_D11 (ADI-57387) (antibody, V domains shown)
VH: B1 VH with P45L, E46Q, S104V
VL: B1 VL with W100H
notes: IgG; also called Ab110
B21: SAD10320_P04_G10 (ADI-48658) (antibody, V domains shown)
VH: B1 VH with P45L, S104D
VL: B1 VL with H99S, W100R
notes: IgG; also called Ab108
B22: SAD10320_P03_F08 (ADI-57378) (antibody, V domains shown)
VH: B1 VH with P45L, S104D
VL: B1 VL with T34P, H99S, W100R
notes: IgG; also called Ab96
B23: SAD10320_P02_H04 (ADI-57362) (antibody, V domains shown)
VH: B1 VH with P45L, E46D, S104L
VL: B1 VL with Y98H, H99M, W100R
notes: IgG; also called Ab73
B24: SAD10320_P02_B05 (ADI-57364) (antibody, V domains shown)
VH: B1 VH with P45L, S104N
VL: B1 VL with H99T, W100H
notes: IgG; also called Ab75
B25: SAD10320_P02_H06 (ADI-57372) (antibody, V domains shown)
VH: B1 VH with P45L, H103R, S104N, F105H
VL: B1 VL with N37S, H99V, W100H
notes: IgG; also called Ab89
B26: SAD10320_P03_B07 (ADI-57373) (antibody, V domains shown)
VH: B1 VH with P45L, E46A, S104D
VL: B1 VL with H99S, W100R
notes: IgG; also called Ab90
B27: SAD10320_P02_E05 (ADI-57366) (antibody, V domains shown)
VH: B1 VH with P45L, A100M, Y101H, H103R, S104Y
VL: B1 VL with Y98E, W100R
notes: IgG; also called Ab78
B28: SAD10320_P02_D06 (ADI-57368) (antibody, V domains shown)
VH: B1 VH with E46A, S104G
VL: B1 VL with H99G, W100H
notes: IgG; also called Ab85
B29: SAD10320_P03_E07 (ADI-57374) (antibody, V domains shown)
VH: B1 VH with P45L, Y101V, G102H, H103R, S104Y
VL: B1 VL with W100P
notes: IgG; also called Ab92
B30: SAD10320_P02_A05 (ADI-57363) (antibody, V domains shown)
VH: B1 VH with P45L, S104M
VL: B1 VL with T34P, W100M
B31: SAD10320_P04_F11 (ADI-57389) (antibody, V domains shown)
VH: B1 VH with P45L, S104E
VL: B1 VL with S97G, Y98H, H99S, W100R
notes: IgG; also called Ab112
B32: SAD10320_P03_A09 (ADI-57380) (antibody, V domains shown)
VH: B1 VH with P45L, S104V
VL: B1 VL with Y98S, W100R
notes: IgG; also called Ab98

Changes are numbered by the printed parent chain.

The target in this test is T1, Cynomolgus CD3εδ Fc heterodimer (Cy …). The experiment in a line: BLI (Octet), IgG on AHC sensor, pH 6.0.
As a reminder, the koff is a measure of how fast the partners let go of each other. Molecule B1 returned a koff of 0.0215 s⁻¹. As for B2, the koff was 0.00719 s⁻¹. The same measure for B3: 0.00194 s⁻¹; for B4: 0.00297 s⁻¹. The same measure for B5: 0.0182 s⁻¹; for B6: 0.0207 s⁻¹. Turning to B7, the koff turned out to be 0.00258 s⁻¹.

As for B8, the koff came to 0.0187 s⁻¹.

B9 came in with a koff of 0.015 s⁻¹. On to B10, for which the off-rate constant (koff) was 0.00239 s⁻¹.

Turning to B11, the koff came to 0.0144 s⁻¹. The same measure for B12: 0.00291 s⁻¹.

B13: the koff was 0.00741 s⁻¹. This koff lies about 2.5-fold higher than the previous one.

As for B14, the koff is 0.0152 s⁻¹. This koff is about 2.1-fold higher than that of the molecule before.

For the molecule B15, the koff stood at 0.0303 s⁻¹.

As to B16, the koff is 0.00264 s⁻¹. Consider B17, for which the dissociation rate constant (koff) is 0.0051 s⁻¹. Molecule B18 registered a koff of 0.0171 s⁻¹. Turning to B19, the koff stood at 0.0176 s⁻¹. B20: the off-rate (koff) stood at 0.00338 s⁻¹. Turning to B21, the koff is 0.0189 s⁻¹. B22 registered a dissociation rate constant (koff) of 0.00268 s⁻¹. Molecule B23 came in with a koff of 0.0278 s⁻¹. Molecule B24 registered a koff of 0.00269 s⁻¹. Against the preceding molecule, the koff is about 10-fold lower. With B25, the off-rate constant (koff) was 0.00281 s⁻¹. Under B26 stands 0.00224 s⁻¹; under B27, 0.00318 s⁻¹.

As to B28, the koff came to 0.00621 s⁻¹.

B29 yielded a koff of 0.00699 s⁻¹.

For B30, the koff was determined as 0.0168 s⁻¹. This koff lies about 2.4-fold higher than the previous one.

B31: the koff was 0.00192 s⁻¹. This koff lies about 8.8-fold lower than the previous one. Regarding B32, the koff is 0.0029 s⁻¹.

Source of the values: US20220380463A1 (Adimab, published 2022).
